Assay results published in publication PMC13624870.
pKd: −log10 of the molar value.

Experiments:
amyloid-β 40 (Aβ40) [1] = target: amyloid-β 40 (Aβ40)
amyloid-β 40 (Aβ40) [2] = test: ITC; ZF2–4 (300 µM) titrated into monomeric Aβ40 (20 µM); one-set-of-sites model; 20 mM HEPES, pH 7.4, 1 mM DTT; 10°C; heat of dilution of ZF2–4 subtracted
[3] = target: uniformly 15N-labeled Aβ40; test: NMR titration; 2D 1H–15N SOFAST–HMQC of 20 µM 15N-labeled Aβ40 with 200 µM ZF2–4 or ZFx′; 20 mM HEPES, pH 7.4, 1 mM DTT, 10% v/v D2O; 10°C
[4] = target: fluorophore-conjugated Aβ40 (HF488Aβ40); test: other fluorescence titration; fluorescence quenching of fluorophore-conjugated Aβ40 (HF488Aβ40) by ZF2–4; conditions in Figure S9

Work on “ZF2–4 (tandem array of three Cys2His2-type zinc finger modules of PARIS) (domain or fragment)” yielded a decrease in the size of Aβ40 liquid droplets (LLPS, confocal microscopy) with equimolar ZF2–4 (100 µM each) relative to Aβ40 alone (amyloid-β 40 (Aβ40) [1]) of 93.7%, a pKd (amyloid-β 40 (Aβ40) [2]) of 5.71 and a dH (amyloid-β 40 (Aβ40) [2]) of -1.31 kcal/mol. For the same substance, the stoichiometry N (Aβ40 per ZF2–4) (amyloid-β 40 (Aβ40) [2]) was 1.7, the average decrease in NMR signal intensity of 15N-labeled Aβ40 [3] was 41.9% and the pKd [4] was 6.49. For the same substance, the stoichiometry N (Aβ40 per ZF2–4) [4] was 1.5.
